Data published in the supplement of paper PMC10567573.

B1: LOXL2 (parent)
chain: RLLRFSSQIHNNGQSDFRPKNGRH

Variants of: B1
Assay: protein stability index of a GFP-peptide fusion (GPS, HEK-293T) (PSI 1-6); higher = more stable
Details: c terminus: a fixed tail appended
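Further: lentivirally expressed fusions sorted by FACS into six bins by GFP to DsRed ratio, PSI derived from sequencing read proportions per bin multiplied by bin number.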

| Variant | protein stability index |
| --- | --- |
| RLLRFSSQIHNNTQSDFRPKNGRH | 2.74 |
| RLLRFSSQIHNNVQSDFRPKNGRH | 2.24 |
| RLLRFSSQIHNNWQSDFRPKNGRH | 2.56 |
| RLLRFSSQIHNNYQSDFRPKNGRH | 2.09 |
| RLLRFSSQIHNNGASDFRPKNGRH | 2.55 |
| RLLRFSSQIHNNGCSDFRPKNGRH | 2.3 |
| RLLRFSSQIHNNGDSDFRPKNGRH | 2.84 |
| RLLRFSSQIHNNGESDFRPKNGRH | 3.26 |
| RLLRFSSQIHNNGFSDFRPKNGRH | 1.8 |
| RLLRFSSQIHNNGGSDFRPKNGRH | 2.52 |
| RLLRFSSQIHNNGHSDFRPKNGRH | 2.59 |
| RLLRFSSQIHNNGISDFRPKNGRH | 2.11 |
| RLLRFSSQIHNNGKSDFRPKNGRH | 2.39 |
| RLLRFSSQIHNNGLSDFRPKNGRH | 2.19 |
| RLLRFSSQIHNNGMSDFRPKNGRH | 2.5 |
| RLLRFSSQIHNNGNSDFRPKNGRH | 2.79 |
| RLLRFSSQIHNNGPSDFRPKNGRH | 2.81 |
| RLLRFSSQIHNNGRSDFRPKNGRH | 2.5 |
| RLLRFSSQIHNNGSSDFRPKNGRH | 3.15 |
| RLLRFSSQIHNNGTSDFRPKNGRH | 3.35 |
| RLLRFSSQIHNNGVSDFRPKNGRH | 2.15 |
| RLLRFSSQIHNNGWSDFRPKNGRH | 2.06 |
| RLLRFSSQIHNNGYSDFRPKNGRH | 1.91 |
| RLLRFSSQIHNNGQADFRPKNGRH | 2.61 |

| Variant | protein stability index |
| --- | --- |
| RLLRFSSQIHNNGQCDFRPKNGRH | 2.65 |
| RLLRFSSQIHNNGQDDFRPKNGRH | 3.06 |
| RLLRFSSQIHNNGQEDFRPKNGRH | 3.14 |
| RLLRFSSQIHNNGQFDFRPKNGRH | 2.28 |
| RLLRFSSQIHNNGQGDFRPKNGRH | 3.29 |
| RLLRFSSQIHNNGQHDFRPKNGRH | 3.05 |
| RLLRFSSQIHNNGQIDFRPKNGRH | 2.72 |
| RLLRFSSQIHNNGQKDFRPKNGRH | 2.42 |
| RLLRFSSQIHNNGQLDFRPKNGRH | 2.36 |
| RLLRFSSQIHNNGQMDFRPKNGRH | 2.2 |
| RLLRFSSQIHNNGQNDFRPKNGRH | 2.36 |
| RLLRFSSQIHNNGQPDFRPKNGRH | 3.12 |
| RLLRFSSQIHNNGQQDFRPKNGRH | 2.77 |
| RLLRFSSQIHNNGQRDFRPKNGRH | 2.55 |
| RLLRFSSQIHNNGQTDFRPKNGRH | 2.8 |
| RLLRFSSQIHNNGQVDFRPKNGRH | 2.44 |
| RLLRFSSQIHNNGQWDFRPKNGRH | 2.44 |
| RLLRFSSQIHNNGQYDFRPKNGRH | 2.83 |
| RLLRFSSQIHNNGQSAFRPKNGRH | 2.36 |
| RLLRFSSQIHNNGQSCFRPKNGRH | 1.73 |
| RLLRFSSQIHNNGQSEFRPKNGRH | 2.72 |
| RLLRFSSQIHNNGQSFFRPKNGRH | 1.97 |
| RLLRFSSQIHNNGQSGFRPKNGRH | 2.12 |
| RLLRFSSQIHNNGQSHFRPKNGRH | 2.35 |

| Variant | protein stability index |
| --- | --- |
| RLLRFSSQIHNNGQSIFRPKNGRH | 2.17 |
| RLLRFSSQIHNNGQSKFRPKNGRH | 1.94 |
| RLLRFSSQIHNNGQSLFRPKNGRH | 2.7 |
| RLLRFSSQIHNNGQSMFRPKNGRH | 1.77 |
| RLLRFSSQIHNNGQSNFRPKNGRH | 2.27 |
| RLLRFSSQIHNNGQSPFRPKNGRH | 2.11 |
| RLLRFSSQIHNNGQSQFRPKNGRH | 2.51 |
| RLLRFSSQIHNNGQSRFRPKNGRH | 2.23 |
| RLLRFSSQIHNNGQSSFRPKNGRH | 2.73 |
| RLLRFSSQIHNNGQSTFRPKNGRH | 2.29 |
| RLLRFSSQIHNNGQSVFRPKNGRH | 2.15 |
| RLLRFSSQIHNNGQSWFRPKNGRH | 2.37 |
| RLLRFSSQIHNNGQSYFRPKNGRH | 2.06 |
| RLLRFSSQIHNNGQSDARPKNGRH | 2.95 |
| RLLRFSSQIHNNGQSDCRPKNGRH | 2.8 |
| RLLRFSSQIHNNGQSDDRPKNGRH | 3.75 |
| RLLRFSSQIHNNGQSDERPKNGRH | 3.67 |
| RLLRFSSQIHNNGQSDGRPKNGRH | 3.04 |
| RLLRFSSQIHNNGQSDHRPKNGRH | 3.52 |
| RLLRFSSQIHNNGQSDIRPKNGRH | 3.38 |
| RLLRFSSQIHNNGQSDKRPKNGRH | 3.34 |
| RLLRFSSQIHNNGQSDLRPKNGRH | 2.75 |
| RLLRFSSQIHNNGQSDMRPKNGRH | 3.06 |
| RLLRFSSQIHNNGQSDNRPKNGRH | 3.42 |

| Variant | protein stability index |
| --- | --- |
| RLLRFSSQIHNNGQSDPRPKNGRH | 3.45 |
| RLLRFSSQIHNNGQSDQRPKNGRH | 3.42 |
| RLLRFSSQIHNNGQSDRRPKNGRH | 3.06 |
| RLLRFSSQIHNNGQSDSRPKNGRH | 3.15 |
| RLLRFSSQIHNNGQSDTRPKNGRH | 3.31 |
| RLLRFSSQIHNNGQSDVRPKNGRH | 2.95 |
| RLLRFSSQIHNNGQSDWRPKNGRH | 2.32 |
| RLLRFSSQIHNNGQSDYRPKNGRH | 2.69 |
| RLLRFSSQIHNNGQSDFAPKNGRH | 3.21 |
| RLLRFSSQIHNNGQSDFCPKNGRH | 2.42 |
| RLLRFSSQIHNNGQSDFDPKNGRH | 3.29 |
| RLLRFSSQIHNNGQSDFEPKNGRH | 3.27 |
| RLLRFSSQIHNNGQSDFFPKNGRH | 2.6 |
| RLLRFSSQIHNNGQSDFGPKNGRH | 2.33 |
| RLLRFSSQIHNNGQSDFHPKNGRH | 2.45 |
| RLLRFSSQIHNNGQSDFIPKNGRH | 2.61 |
| RLLRFSSQIHNNGQSDFKPKNGRH | 3.23 |
| RLLRFSSQIHNNGQSDFLPKNGRH | 2.31 |
| RLLRFSSQIHNNGQSDFMPKNGRH | 2.67 |
| RLLRFSSQIHNNGQSDFNPKNGRH | 2.87 |
| RLLRFSSQIHNNGQSDFPPKNGRH | 2.83 |
| RLLRFSSQIHNNGQSDFQPKNGRH | 2.99 |
